The term stoichiometry N denotes the number of molecules, sites or subunits per partner or assembly.

This test addresses cross-linked CA(M66I) hexamer, CA(A14C/E45C/W184A/M185A) with M66I (HIV-1). The test is described as follows: crystal structure.

Substance “cross-linked CA(M66I) hexamer, CA(A14C/E45C/W184A/M185A) with M66I (natural protein)” came in with a stoichiometry N of 6.

These data come from article doi:10.1101/2024.11.25.625199.
